Laboratory results reported in publication PMC9288159, “Identification of a guanine-specific pocket in the protein N of SARS-CoV-2”.

Molecular target: SARS-CoV-2 N protein C-terminal domain (NCTD) (SARS-CoV-2, UniProt P0DTC9 256-364)
Test: EMSA; […]; binding buffer not stated ([…]
Conditions: protein: recombinant; tags: N-terminal His6-TEV site (pET28a); chain copies: 2; label: 5' IRDye-800CW

CGGUUUCGCCG (ssRNA) [Oligo-G (SL5a apical region)]
Kd: 32 ± 5 nM
